Results reported in US8304565B2, “PEG-lipid conjugates for liposomes and drug delivery” (priority 2008, dated 2012).

Assays:
human red blood cells = assay: Hemolysis of human red blood cells; assay type: cell-based; settings: equivalent concentrations (20 mmol), absorbance at 413 nm
Experimental: In addition, hemolysis of human red blood cells was performed to provide a more quantitative cytotoxicity evaluation of the PEG-grafted lipids. Cell lysis caused by cytotoxic material leads to release of heme into solution, which was detected by absorbance at 413 nm and compared to control experiments performed in the absence of the synthetic material. Results in Table 6 for equivalent concentrations (20 mmol) of sodium lauryl sulfate (SLS) and mPEG-600 were shown for the comparison.

[1] = In vitro stability of selective linkers at low pH; assay type: physicochemical; settings: 10 mM phosphate buffer (pH 2.1), approximately 0.05 g/mL, 37°, GPC with RI detector
Experimental: Three DAG-PEGs with equivalent PEG chains and fatty acids, but different linkages (shown in Table 5) were tested for stability at low pH, in the range of 1.4 to 2.1. Table 5 includes alternate names for each of the three DAG-PEGs tested.
The selected DAG-PEGs were mixed with 10 mM phosphate buffer (pH 2.1) at final concentrations approximately 0.05 g/mL and incubated at 37° . The sample solutions were tested on a GPC column with RI detector and the breakdown fragments were further confirmed by LC-MS/MS.
In FIG. 1, (1) is PEG (n=12)-3-acetyl-1,2-rac-dioleoylglucerol, (2) is PEG (n=12)-3-acetamido-dioleoylglycerol and (3) is PEG (n=12)-3-N-(mercaptomethyl)-Propionamido-1,2-rac-dioleoylglucerol.

[2] = Spontaneous liposome formation of DAG-PEG lipids; assay type: physicochemical
From the text: Herein, we describe biologically degradable linear PEG analogs carrying diacylglycerol lipid groups. These new molecules belong to a class referred to as diacylglycerol-polyethyleneglycols (DAG-PEGs). DAG-PEGs having certain properties form liposomes spontaneously upon mixing with an aqueous solution. Briefly, DAG-PEGs or lipid mixtures including DAG-PEGs must have packing parameters that allow liposome formation. Generally, Pa is preferably between about 0.84 and 0.88, and Pv is preferably between about 0.88 and 0.93. Also, the DAG-PEGs or lipid mixtures including DAG-PEGs must have a melting point below the temperature of liposome formation. If a DAG-PEG meets these conditions, it will form liposomes spontaneously (without external energy inputs). Spontaneous liposomes and DAG-PEGs are described in U.S. Pat. No. […], which is hereby incorporated by reference. The particular DAG-PEGs described in U.S. Pat. No. […] utilized a single oxy (alternatively called oxyl) linkage between the PEG and the glycerol backbone.
A number of new DAG-PEGs were synthesized and tested. Most of the combinations of PEG chains and fatty acids were chosen because it was known or expected that such DAG-PEGs with oxy linkages would have packing parameters and melting points favorable for the formation of liposomes.

[3] = mouse, in vivo, iv, 10 mg/kg
Experimental: Groups of three male mice (B6D2F1) were used for the studies. Pharmacokinetics (PK) were performed on heparinized mouse plasma samples obtained typically at 0 hr, 0.08 hr, 0.25 hr, 0.5 hr, 1 hr, 2 hr, 4 hr, 8 hr, 16 hr and 24 hr after the bolus IV injection or oral feeding for posaconazole and at 0 hr, 0.08 hr, 0.25 hr, 0.5 hr, 1 hr, 2 hr, 4 hr, 8 hr, 16 hr and 24 hr for itraconazole. Samples were analyzed using a HPLC-MS method. To determine the level of each drug, the drug was first isolated from plasma with a sample pre-treatment. Acetonitrile were used to remove proteins in samples. An isocratic HPLC-MS method was then used to separate the drugs from any potential interference. Drug levels were measured by MS detection with a multiple reaction monitoring (MRM) mode. PK data was analyzed using the WinNonlin program (ver. 5.2, Pharsight) compartmental models of analysis.
The drug was administered intravenously and the dosing strength was 10 mg/kg.

## CCCCCCCCCCCCOS(=O)(=O)[O-].[Na+] [SLS, sodium lauryl sulfate]
Human red blood cells
  % Hemolysis: 80%

## PEG (n=12)-3-N-(mercaptomethyl)-Propionamido-1,2-rac dioleoylglycerol [PEG-12-S2-GDO]
[1]
  stability at low pH: degraded quickly

## PEG (n=12)-3-acetamido-dioleoylglycerol [PEG-12-N3-GDO]
[1]
  stability at low pH: relatively stable

## PEG (n=12)-3-acetyl-1,2-rac-dioleoylglycerol [PEG-12-Ac2-GDO]
[2]; 20° C.
  Spontaneous Liposome at 20° C.: Yes
[2]; 37° C.
  Spontaneous Liposome at 37° C.: Yes
[1]
  stability at low pH: stable

## POPC
[3]
  AUC: 164.1 µg·h/mL
